Results from article PMC9897468.

What was measured:
[1] = target: Alexa-647-labeled KIF5AA (mouse) (UniProt P33175); assay: dual color TIRF-M in vitro motility reconstitution
microtubules (MTs) [2] = assay: TIRF-M dwell time on microtubules with EB1
microtubules (MTs) [3] = assay: TIRF-M dwell time of diffusing molecules on microtubules

Sequence of Alexa-647-labeled KIF5AA (mouse) (P33175 whole entry): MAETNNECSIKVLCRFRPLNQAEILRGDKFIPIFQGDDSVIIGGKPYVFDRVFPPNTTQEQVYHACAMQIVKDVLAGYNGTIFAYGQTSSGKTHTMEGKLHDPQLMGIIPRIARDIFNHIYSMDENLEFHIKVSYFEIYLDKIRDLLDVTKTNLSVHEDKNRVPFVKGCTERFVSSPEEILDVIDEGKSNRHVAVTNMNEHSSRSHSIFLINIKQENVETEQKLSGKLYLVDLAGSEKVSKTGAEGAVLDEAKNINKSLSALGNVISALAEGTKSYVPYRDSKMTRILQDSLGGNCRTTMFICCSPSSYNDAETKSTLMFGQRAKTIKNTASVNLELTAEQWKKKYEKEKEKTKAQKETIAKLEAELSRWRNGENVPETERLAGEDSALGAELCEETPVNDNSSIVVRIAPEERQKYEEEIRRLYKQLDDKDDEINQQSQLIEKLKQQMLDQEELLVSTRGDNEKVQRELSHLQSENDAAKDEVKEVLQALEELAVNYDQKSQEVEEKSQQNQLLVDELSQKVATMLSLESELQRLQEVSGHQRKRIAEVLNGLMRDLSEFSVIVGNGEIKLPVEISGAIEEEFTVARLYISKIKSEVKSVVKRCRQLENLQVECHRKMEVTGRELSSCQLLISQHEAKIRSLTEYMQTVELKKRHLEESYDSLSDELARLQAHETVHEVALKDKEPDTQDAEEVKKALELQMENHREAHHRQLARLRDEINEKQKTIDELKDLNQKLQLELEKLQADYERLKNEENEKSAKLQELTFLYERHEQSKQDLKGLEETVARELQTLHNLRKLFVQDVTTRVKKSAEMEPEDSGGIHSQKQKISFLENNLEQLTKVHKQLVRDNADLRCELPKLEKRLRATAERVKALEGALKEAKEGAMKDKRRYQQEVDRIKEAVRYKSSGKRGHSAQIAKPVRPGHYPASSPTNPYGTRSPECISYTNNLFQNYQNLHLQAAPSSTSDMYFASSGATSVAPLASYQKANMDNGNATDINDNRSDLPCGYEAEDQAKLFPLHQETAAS

percent of processive KIF5AA-647 that transports APC–TMR [1]: 25% | dwell time with EB1 (fast and slow components) (microtubules (MTs) [2]): > 60 s | dwell time, long diffusion events (microtubules (MTs) [3]): 26.3 s
Substance: adenomatous polyposis coli (APC), full-length, Q61315 1-2845
